Results published in patent publication US20210244806A1, “Recombinant Protease Inhibitor-Containing Compositions, Methods for Producing Same and Uses Thereof” (ORAMED LTD., priority 2018, published 2021).

Key:
trypsin = target: T1, trypsin (Bos taurus, UniProt P00760); assay: Trypsin Inhibition Assay; type: biochemical
T1 sequence (P00760 24-246): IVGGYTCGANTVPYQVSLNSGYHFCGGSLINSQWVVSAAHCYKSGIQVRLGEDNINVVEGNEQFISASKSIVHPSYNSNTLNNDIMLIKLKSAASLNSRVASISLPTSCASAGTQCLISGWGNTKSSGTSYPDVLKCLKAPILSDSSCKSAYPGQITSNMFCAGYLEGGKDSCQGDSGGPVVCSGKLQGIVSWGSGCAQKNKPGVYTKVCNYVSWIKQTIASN
Procedure: FIG. 5. Trypsin Inhibition Assay.
Unless indicated otherwise, anti-trypsin activity referred to herein is measured using trypsin having an activity of 10,000 BAEE units per mg. of trypsin, and is expressed in mg. of trypsin inhibited per mg. of protein being tested. BAEE refers to Na-Benzoyl-L-Arginine Ethyl Ester Solution (see the directions for Sigma-Aldrich Product No. B4500). For example, in a typical assay, one unit corresponds to the amount of inhibitor that reduces the trypsin activity by one benzoyl-L-arginine ethyl ester unit (BAEE-U). One BAEE-U is the amount of enzyme that increases the absorbance at 253 nm by 0.001 per minute at pH 7.6 and 25° C. See, for example, K. Ozawa, M. Laskowski, 1966, J. Biol. Chem. 241:3955; and Y. Birk, 1976, Meth. Enzymol. 45:700.
(§1) Protease inhibitor enzymatic activity was verified for the recombinant product, and demonstrable inhibition of chymotrypsin activity was achieved (FIG. 4) as well as inhibition of trypsin activity (FIG. 5).

chymotrypsin = chymotrypsin (Bos taurus, UniProt P00766); assay: Chymotrypsin Inhibition Assay; type: biochemical
Procedure: FIG. 4. Chymotrypsin Inhibition Assay.
Unless indicated otherwise, anti-chymotrypsin activity referred to herein is measured using chymotrypsin having an activity of 40 BTEE units per mg. of chymotrypsin, and is expressed in mg. of chymotrypsin inhibited per mg. of protein being tested. BTEE refers to N-Benzoyl-L-Tyrosine Ethyl Ester (see the directions for Sigma-Aldrich Product No. B6125).
as §1

B1: rBBI: recombinant Bowman-Birk type proteinase inhibitor, codon-optimized (SEQ ID NO: 1), secreted from Pichia pastoris GS115, clone B17 (protein, listed as Pichia pastoris)
chain: DDESSKPCCDQCACTKSNPPQCRCSDMRLNSCHSACKSCICALSYPAQCFCVDITDFCYEPCKPSEDDKEN
With B1 the “inhibition of trypsin activity compared to purified SBTI purified from soya” value (trypsin; FIG. 5, result in words) was “far greater inhibition of enzymatic activity”, the “trypsin inhibited by 1 mg inhibitor” value (trypsin; FIG. 5, trypsin of 10,000 BAEE units per mg) was 1.7 mg trypsin inhibited by 1 mg inhibitor and the “inhibition of chymotrypsin activity compared to purified SBTI purified from soya” value (chymotrypsin; FIG. 4, result in words) was “far greater inhibition of enzymatic activity”. For the same molecule, the “chymotrypsin inhibited by 1 mg inhibitor” value (chymotrypsin; FIG. 4, chymotrypsin of 40 BTEE units per mg) was 2.3 mg chymotrypsin inhibited by 1 mg inhibitor.
